± gives the uncertainty stated by the source.
Assay: protein stability index of a GFP-peptide fusion (yeast GPS) (PSI 1-4); higher = more stable; sorted into four equal gates, so the index is relative within each strain
How it was run: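 For each peptide, the protein stability index sums the read frequency in every gate after multiplying it by the gate number. Read frequencies came from plasmids that were PCR-amplified from each gate and Illumina-sequenced, with reads assigned to strains by barcodes. The gates were four equal bins of GFP/Cherry fluorescence ratio applied to mid-log yeast in leucine-free medium carrying a pooled library of tiled 17-residue yeast protein peptides fused downstream of GFP on a Cherry-expressing plasmid.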

IKFLLTFIDKERHQKQL [YCS4]
protein stability index (doa10∆): 1.7 ± 0.18
protein stability index (san1∆): 1.58 ± 0.27

ANARDFGEWAGMTKSNI [BRR2]
protein stability index (doa10∆): 2.28 ± 0.12
protein stability index (pdr5∆): 2.82 ± 0.14
protein stability index (san1∆): 1.55 ± 0.12
protein stability index (ubr1∆): 2.37 ± 0.079

QARDNSQVFGVARIYAS [RPS14A]
protein stability index (doa10∆): 1.9 ± 0.066
protein stability index (pdr5∆): 2.12 ± 0.057
protein stability index (san1∆): 1.84 ± 0.087
protein stability index (ubr1∆): 2.23 ± 0.045

NLLKNFISSNDAFNMLS [SNF6]
protein stability index (doa10∆): 1.61 ± 0.099
protein stability index (pdr5∆): 2 ± 0.061
protein stability index (san1∆): 1.97 ± 0.13
protein stability index (ubr1∆): 1.98 ± 0.043

MAGLKDVVTREYTINLH [RPL31A]
protein stability index (doa10∆): 3.02 ± 0.15
protein stability index (pdr5∆): 3.06 ± 0.14
protein stability index (san1∆): 3.01 ± 0.08
protein stability index (ubr1∆): 3.29 ± 0.16

RSTRIRTKSQVIEEDYD [IRR1]
protein stability index (doa10∆): 2.89 ± 0.15
protein stability index (pdr5∆): 3.22 ± 0.082
protein stability index (san1∆): 3.42 ± 0.078
protein stability index (ubr1∆): 3.43 ± 0.11

SIKSQKEEISDQKPIEH [SWI3]
protein stability index (doa10∆): 2.88 ± 0.059
protein stability index (pdr5∆): 2.98 ± 0.055
protein stability index (san1∆): 2.84 ± 0.048
protein stability index (ubr1∆): 2.96 ± 0.045

SKSDSDSEERDPKLEKC [ITC1]
protein stability index (doa10∆): 3 ± 0.14
protein stability index (pdr5∆): 2.97 ± 0.13
protein stability index (san1∆): 2.62 ± 0.11
protein stability index (ubr1∆): 1.84 ± 0.058

FLQKFEIAFHLTLIFYD [YML103C/NUP188]
protein stability index (doa10∆): 1.49 ± 0.083
protein stability index (pdr5∆): 1.46 ± 0.044
protein stability index (san1∆): 1.41 ± 0.12
protein stability index (ubr1∆): 1.35 ± 0.052

TIVQLCKKKEMSQYQST [YIL149C/MLP2]
protein stability index (doa10∆): 1.88 ± 0.063
protein stability index (pdr5∆): 2.14 ± 0.061
protein stability index (san1∆): 1.76 ± 0.091
protein stability index (ubr1∆): 1.8 ± 0.052

DYFFYFLVLYDVKTAEE [NUT1]
protein stability index (doa10∆): 1.52 ± 0.043
protein stability index (pdr5∆): 1.46 ± 0.044
protein stability index (san1∆): 1.62 ± 0.094
protein stability index (ubr1∆): 1.76 ± 0.04

QAYFSRLELPVDFQNDL [BRR2]
protein stability index (doa10∆): 2.65 ± 0.15
protein stability index (pdr5∆): 2.1 ± 0.064
protein stability index (san1∆): 2.54 ± 0.066
protein stability index (ubr1∆): 2.32 ± 0.044

IDNGTGRTGNGNMGITT [MED6]
protein stability index (doa10∆): 2.92 ± 0.12
protein stability index (pdr5∆): 2.98 ± 0.061
protein stability index (san1∆): 3.25 ± 0.067
protein stability index (ubr1∆): 3.31 ± 0.043

PENLQVTSEKYPFDKLE [BRR2]
protein stability index (doa10∆): 2.86 ± 0.085
protein stability index (pdr5∆): 3.07 ± 0.093
protein stability index (san1∆): 2.93 ± 0.064
protein stability index (ubr1∆): 3.19 ± 0.035

RKIVFRCSECIKILGSE [RPN4]
protein stability index (doa10∆): 1.22 ± 0.14
protein stability index (pdr5∆): 1.88 ± 0.25

NQVTDSSQLNKLTDEQS [SIR3]
protein stability index (doa10∆): 2.71 ± 0.063
protein stability index (pdr5∆): 2.74 ± 0.069
protein stability index (san1∆): 2.82 ± 0.07
protein stability index (ubr1∆): 2.68 ± 0.072

KVSPEELPLVITMPATN [ARP7]
protein stability index (doa10∆): 2.64 ± 0.053
protein stability index (pdr5∆): 2.68 ± 0.065
protein stability index (san1∆): 2.57 ± 0.053
protein stability index (ubr1∆): 2.57 ± 0.042

NATLTPNDSNDEKVTIL [SWI1]
protein stability index (doa10∆): 3.02 ± 0.059
protein stability index (pdr5∆): 3.22 ± 0.061
protein stability index (san1∆): 3.1 ± 0.066
protein stability index (ubr1∆): 3.11 ± 0.04

EKVSSVLSALEGKSVDE [RPP2A]
protein stability index (doa10∆): 2.57 ± 0.077
protein stability index (pdr5∆): 2.09 ± 0.049
protein stability index (san1∆): 2.16 ± 0.078
protein stability index (ubr1∆): 1.87 ± 0.038

TLDNIDDINKAKAVWEN [ARP9]
protein stability index (doa10∆): 3.14 ± 0.058
protein stability index (pdr5∆): 3.18 ± 0.062
protein stability index (san1∆): 3.29 ± 0.051
protein stability index (ubr1∆): 3.27 ± 0.058

RNNHNSNTSTSKMLDAA [SNF12]
protein stability index (doa10∆): 3.01 ± 0.058
protein stability index (pdr5∆): 3.04 ± 0.044
protein stability index (san1∆): 3.22 ± 0.092
protein stability index (ubr1∆): 3.01 ± 0.048

TYRCSIKNLPADVSKLM [SRB2]
protein stability index (doa10∆): 2.56 ± 0.061
protein stability index (pdr5∆): 2.83 ± 0.05
protein stability index (san1∆): 2.33 ± 0.05
protein stability index (ubr1∆): 2.69 ± 0.044

VDDVLETISAIEHPMTS [RPN1]
protein stability index (doa10∆): 3.15 ± 0.13
protein stability index (pdr5∆): 3.2 ± 0.091
protein stability index (san1∆): 2.79 ± 0.16
protein stability index (ubr1∆): 2.91 ± 0.083

PSYSPTSPGYSPGSPAY [RPO21]
protein stability index (doa10∆): 2.52 ± 0.067
protein stability index (pdr5∆): 2.27 ± 0.053
protein stability index (san1∆): 2.33 ± 0.1
protein stability index (ubr1∆): 2.02 ± 0.043

ENVQIGEDFMEVDYEDK [SRB4]
protein stability index (doa10∆): 3.48 ± 0.13
protein stability index (pdr5∆): 1.97 ± 0.17
protein stability index (ubr1∆): 2.2 ± 0.084

GDIKVLDSNFNLQREID [RPN14]
protein stability index (doa10∆): 2.96 ± 0.12
protein stability index (pdr5∆): 3.11 ± 0.091
protein stability index (san1∆): 2.93 ± 0.085
protein stability index (ubr1∆): 3.26 ± 0.082

GCIPGNRKRIVTLRKSL [RPL3]
protein stability index (doa10∆): 1.38 ± 0.069
protein stability index (pdr5∆): 1.5 ± 0.083
protein stability index (san1∆): 1.6 ± 0.2
protein stability index (ubr1∆): 1.26 ± 0.061

Reference: the supplement of paper PMC9732359
